The text below walks through data of patent US10472401B2, “Peptides and combination of peptides for use in immunotherapy against ovarian cancer and other cancers” (immatics biotechnologies GmbH, priority 2015, dated 2019).

The assay deals with HLA-A*02:01 (Homo sapiens, UniProt P04439, D140Y/D185E/D98H/E176V/E277Q/G131W/G231S/I119V/I121R/I166T/I218V/L300P/L318F/N151K/N90K/P208A/P217A/Q86G/Q94H/R138H/R169H/T345S). Briefly: MHC binding assay (UV-ligand exchange, ELISA of stabilized MHC complexes). The following applies: MHC class I binding score; binding to HLA-A*02:01 ranged by peptide exchange yield (UV-ligand exchange, ELISA). The method, boiled down: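 Peptide-MHC complexes made by UV-ligand exchange, cleaving a UV-sensitive placeholder peptide and replacing it with the test peptide. Exchange yield measured by ELISA: streptavidin-captured monomers (diluted 100-fold, 1 h, 37 °C) detected with HRP anti-β2m and TMB, absorbance at 450 nm.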
A general note: An ELISA detects its analyte on a solid surface through an enzyme-linked reagent.
As to “349 (SLTEYLQNV; listed as Homo sapiens) [compound 349]”, the Peptide exchange entry was “″++++″ (≥75% = ++++)”.

For “396 (ALLPDLPAL; listed as Homo sapiens) [compound 396]”, the Peptide exchange entry is “″+++″ (≥50% = +++)”.

For “580 (LLMENAERV; listed as Homo sapiens) [compound 580]”, the Peptide exchange result was “″++″ (≥20% = ++)”.

With “459 (ALITEVVRL; listed as Homo sapiens) [compound 459]”, the Peptide exchange entry is “″++″ (≥20% = ++)”.

Regarding “176 (YLMEGSYNKVFL; listed as Homo sapiens) [compound 176]”, the Peptide exchange result was “″++″ (≥20% = ++)”.

On to “138 (YQYPRAILSV; listed as Homo sapiens) [compound 138]”, for which the Peptide exchange result is listed as “″+++″ (≥50% = +++)”.

“350 (ALLDVTHSELTV; listed as Homo sapiens) [compound 350]”: the Peptide exchange entry is listed as “″+++″ (≥50% = +++)”.

For the substance “76 (ILIDSIYKV; listed as Homo sapiens) [compound 76]”, the Peptide exchange entry is “″+++″ (≥50% = +++)”.

Take “524 (ALIENLTHQI; listed as Homo sapiens) [compound 524]”: the Peptide exchange entry was “″++″ (≥20% = ++)”.

For “280 (VLPDPEVLEAV; listed as Homo sapiens) [compound 280]”, the Peptide exchange result is reported as “″+++″ (≥50% = +++)”.

As for “576 (ILLNNSGQIKL; listed as Homo sapiens) [compound 576]”, the Peptide exchange entry was “″++++″ (≥75% = ++++)”.

Take “557 (KLYDDMIRL; listed as Homo sapiens) [compound 557]”: the Peptide exchange entry is listed as “″+++″ (≥50% = +++)”.

Consider “386 (ILFRYPLTI; listed as Homo sapiens) [compound 386]”, for which the Peptide exchange entry is listed as “″+++″ (≥50% = +++)”.

In the case of “486 (AVMESIQGV; listed as Homo sapiens) [compound 486]”, the Peptide exchange result is “″+++″ (≥50% = +++)”.

Take “538 (LLLAHIIAL; listed as Homo sapiens) [compound 538]”: the Peptide exchange entry is “″++″ (≥20% = ++)”.

As to “140 (YMDAPKAAL; listed as Homo sapiens) [compound 140]”, the Peptide exchange entry is “″++″ (≥20% = ++)”.

Regarding “450 (FMIDASVHPTL; listed as Homo sapiens) [compound 450]”, the Peptide exchange result was “″+++″ (≥50% = +++)”.

With “564 (TVTNAVVTV; listed as Homo sapiens) [compound 564]”, the Peptide exchange result was “″+++″ (≥50% = +++)”.

On to “451 (LLLLDTVTMQV; listed as Homo sapiens) [compound 451]”, for which the Peptide exchange result was “″++″ (≥20% = ++)”.

Consider “152 (ILFEDIFDV; listed as Homo sapiens) [compound 152]”, for which the Peptide exchange entry is listed as “″+++″ (≥50% = +++)”.

Regarding “345 (VIWKALIHL; listed as Homo sapiens) [compound 345]”, the Peptide exchange result is “″+++″ (≥50% = +++)”.

In the case of “572 (ALADLIEKELSV; listed as Homo sapiens) [compound 572]”, the Peptide exchange entry is reported as “″+++″ (≥50% = +++)”.

As to “204 (KIAENVEEV; listed as Homo sapiens) [compound 204]”, the Peptide exchange result is “″++″ (≥20% = ++)”.

Turning to “449 (KLAEGLDIQL; listed as Homo sapiens) [compound 449]”, the Peptide exchange entry is on record as “″+++″ (≥50% = +++)”.

As for “205 (SLYPGTETMGL; listed as Homo sapiens) [compound 205]”, the Peptide exchange result was “″+++″ (≥50% = +++)”.

On to “543 (GLLPTPITQQASL; listed as Homo sapiens) [compound 543]”, for which the Peptide exchange entry is listed as “″+++″ (≥50% = +++)”.

In the case of “592 (RLLSAAENFL; listed as Homo sapiens) [compound 592]”, the Peptide exchange entry is “″+++″ (≥50% = +++)”.

Turning to “505 (SLAPGDVVRQV; listed as Homo sapiens) [compound 505]”, the Peptide exchange result is given as “″++″ (≥20% = ++)”.

For “189 (ALQRKLPYV; listed as Homo sapiens) [compound 189]”, the Peptide exchange result is “″+++″ (≥50% = +++)”.

Take “433 (AMLNEPWAV; listed as Homo sapiens) [compound 433]”: the Peptide exchange result is reported as “″+++″ (≥50% = +++)”.

Regarding “92 (YLIPFTGIVGL; listed as Homo sapiens) [compound 92]”, the Peptide exchange result is listed as “″++″ (≥20% = ++)”.

On to “490 (FLLQHVQEL; listed as Homo sapiens) [compound 490]”, for which the Peptide exchange result is “″+++″ (≥50% = +++)”.

In the case of “66 (FLDENIGGVAV; listed as Homo sapiens) [compound 66]”, the Peptide exchange result is on record as “″+++″ (≥50% = +++)”.

As to “17 (GLLPGDRLVSV; listed as Homo sapiens) [compound 17]”, the Peptide exchange entry is “″+++″ (≥50% = +++)”.

As to “561 (YLQLTQSEL; listed as Homo sapiens) [compound 561]”, the Peptide exchange result is reported as “″+++″ (≥50% = +++)”.

For the substance “541 (SMLEPVPEL; listed as Homo sapiens) [compound 541]”, the Peptide exchange result is given as “″+++″ (≥50% = +++)”.

On to “610 (LLAPTPYIIGV; listed as Homo sapiens) [compound 610]”, for which the Peptide exchange entry is “″+++″ (≥50% = +++)”.

As to “107 (FLQPVDDTQHL; listed as Homo sapiens) [compound 107]”, the Peptide exchange result was “″+++″ (≥50% = +++)”.

With “111 (YVWGFYPAEV; listed as Homo sapiens) [compound 111]”, the Peptide exchange entry was “″+++″ (≥50% = +++)”.

“234 (ALMEDTGRQML; listed as Homo sapiens) [compound 234]”: the Peptide exchange result is listed as “″++″ (≥20% = ++)”.

With “269 (RVLEVGALQAV; listed as Homo sapiens) [compound 269]”, the Peptide exchange entry is “″++″ (≥20% = ++)”.

As for “441 (ALLENPKMEL; listed as Homo sapiens) [compound 441]”, the Peptide exchange result was “″+++″ (≥50% = +++)”.

On to “24 (SLSDGLEEV; listed as Homo sapiens) [compound 24]”, for which the Peptide exchange entry is on record as “″++″ (≥20% = ++)”.

With “308 (SQYSGQLHEV; listed as Homo sapiens) [compound 308]”, the Peptide exchange result was “″+++″ (≥50% = +++)”.

Regarding “324 (FLYDEIEAEV; listed as Homo sapiens) [compound 324]”, the Peptide exchange result is reported as “″+++″ (≥50% = +++)”.

Take “309 (GLFDGVPTTA; listed as Homo sapiens) [compound 309]”: the Peptide exchange entry is given as “″+++″ (≥50% = +++)”.

Turning to “245 (SMIDDLLGV; listed as Homo sapiens) [compound 245]”, the Peptide exchange entry is “″+++″ (≥50% = +++)”.

In the case of “473 (AMATESILHFA; listed as Homo sapiens) [compound 473]”, the Peptide exchange entry is recorded as “″+++″ (≥50% = +++)”.

“353 (YLFEMDSSL; listed as Homo sapiens) [compound 353]”: the Peptide exchange entry was “″++″ (≥20% = ++)”.

As for “10 (FLATFPLAAV; listed as Homo sapiens) [compound 10]”, the Peptide exchange entry is “″++++″ (≥75% = ++++)”.

“477 (ALLPASGQIAL; listed as Homo sapiens) [compound 477]”: the Peptide exchange result is on record as “″+++″ (≥50% = +++)”.

As for “501 (LLDPNVKSIFV; listed as Homo sapiens) [compound 501]”, the Peptide exchange result is “″+++″ (≥50% = +++)”.

Regarding “453 (KLLEATSAV; listed as Homo sapiens) [compound 453]”, the Peptide exchange entry is recorded as “″++″ (≥20% = ++)”.

For the substance “122 (FLLAEDDIYL; listed as Homo sapiens) [compound 122]”, the Peptide exchange entry is reported as “″+++″ (≥50% = +++)”.

As to “208 (KISPVTFSV; listed as Homo sapiens) [compound 208]”, the Peptide exchange result was “″+++″ (≥50% = +++)”.

On to “104 (STMEQNFLL; listed as Homo sapiens) [compound 104]”, for which the Peptide exchange result is “″++++″ (≥75% = ++++)”.

As for “233 (VLSETLYEL; listed as Homo sapiens) [compound 233]”, the Peptide exchange result is reported as “″++″ (≥20% = ++)”.

For “320 (KMFEFVEPLL; listed as Homo sapiens) [compound 320]”, the Peptide exchange result was “″++++″ (≥75% = ++++)”.

Regarding “369 (GLFPEHLIDV; listed as Homo sapiens) [compound 369]”, the Peptide exchange result was “″+++″ (≥50% = +++)”.

In the case of “492 (SLFDGFADGLGV; listed as Homo sapiens) [compound 492]”, the Peptide exchange entry is on record as “″+++″ (≥50% = +++)”.

On to “180 (FQIDPHSGLVTV; listed as Homo sapiens) [compound 180]”, for which the Peptide exchange entry is “″++″ (≥20% = ++)”.

Regarding “35 (KINDTIYEV; listed as Homo sapiens) [compound 35]”, the Peptide exchange entry is given as “″+++″ (≥50% = +++)”.

For “531 (YTLPIASSIRL; listed as Homo sapiens) [compound 531]”, the Peptide exchange result was “″+++″ (≥50% = +++)”.

Turning to “556 (FLTDLEDLTL; listed as Homo sapiens) [compound 556]”, the Peptide exchange result is given as “″+++″ (≥50% = +++)”.

With “134 (YLQELIFSV; listed as Homo sapiens) [compound 134]”, the Peptide exchange result is listed as “″+++″ (≥50% = +++)”.

With “500 (SLMEDQVLQL; listed as Homo sapiens) [compound 500]”, the Peptide exchange entry is recorded as “″+++″ (≥50% = +++)”.

On to “521 (MLLTKLPTI; listed as Homo sapiens) [compound 521]”, for which the Peptide exchange entry was “″+++″ (≥50% = +++)”.

For the substance “145 (FLATSGTLAGI; listed as Homo sapiens) [compound 145]”, the Peptide exchange entry is on record as “″++″ (≥20% = ++)”.

As for “542 (RVWDISTVSSV; listed as Homo sapiens) [compound 542]”, the Peptide exchange entry was “″+++″ (≥50% = +++)”.

“16 (VLFQGQASL; listed as Homo sapiens) [compound 16]”: the Peptide exchange entry is recorded as “″+++″ (≥50% = +++)”.
